Reference: article PMC4434712 (Proceedings of the National Academy of Sciences of the …, 2015)
Read-outs that look alike come from different tables or passages of the source.

Assays:
Experiment in all cases: crystal structure
[1] = biological target: T1, VZV glycoprotein gH (ectodomain, as in the gHgL crystal structures) (varicella-zoster virus, UniProt P09260)
VZV glycoprotein gL [2] = biological target: T2, VZV glycoprotein gL (varicella-zoster virus, UniProt P09308)
[3] = biological target: T1, VZV glycoprotein gH (ectodomain, as in …); remark: listed apart in the source
VZV glycoprotein gL [4] = biological target: T2, VZV glycoprotein gL; remark: listed apart in the source

T1 sequence (P09260 18-795): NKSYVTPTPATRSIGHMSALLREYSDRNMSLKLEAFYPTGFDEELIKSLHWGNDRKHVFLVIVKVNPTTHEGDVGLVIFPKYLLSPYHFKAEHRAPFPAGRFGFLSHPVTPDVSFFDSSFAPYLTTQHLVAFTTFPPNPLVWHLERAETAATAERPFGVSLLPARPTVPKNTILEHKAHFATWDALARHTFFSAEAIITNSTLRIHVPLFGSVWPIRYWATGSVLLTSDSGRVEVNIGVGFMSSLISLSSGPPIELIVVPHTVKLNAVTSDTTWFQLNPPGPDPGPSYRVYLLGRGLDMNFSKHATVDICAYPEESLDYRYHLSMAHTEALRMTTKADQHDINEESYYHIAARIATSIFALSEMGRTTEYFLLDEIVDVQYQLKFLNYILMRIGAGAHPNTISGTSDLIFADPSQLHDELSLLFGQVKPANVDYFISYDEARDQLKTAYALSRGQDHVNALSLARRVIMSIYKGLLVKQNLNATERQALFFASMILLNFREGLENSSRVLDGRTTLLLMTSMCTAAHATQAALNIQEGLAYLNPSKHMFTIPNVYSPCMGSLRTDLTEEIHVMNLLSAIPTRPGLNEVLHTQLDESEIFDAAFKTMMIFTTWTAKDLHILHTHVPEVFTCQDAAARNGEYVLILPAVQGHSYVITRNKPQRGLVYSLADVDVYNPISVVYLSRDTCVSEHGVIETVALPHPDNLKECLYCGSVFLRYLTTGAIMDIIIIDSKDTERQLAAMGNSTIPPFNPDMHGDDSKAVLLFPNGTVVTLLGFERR
T2 sequence (P09308 22-159): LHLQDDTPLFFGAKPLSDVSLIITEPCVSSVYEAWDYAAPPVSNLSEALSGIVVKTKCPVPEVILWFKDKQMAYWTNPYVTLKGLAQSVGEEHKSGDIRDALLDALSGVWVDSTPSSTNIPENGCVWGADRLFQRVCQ

Binder | binding result [1] | binding result (VZV glycoprotein gL [2]) | binding result [3] | binding result (VZV glycoprotein gL [4])
Fab-94, Fab fragment of the human monoclonal antibody IgG-94 (Fab, V domains shown) VH: EVQLVESGGGVVQPGRSLRLSCGASGFTFNTYAMHWVRQAPGKGVEWVAVVSDGGGNRYYAASVKGRFTISRDNSKNTLFLQLNTLRPEDTAVYYCARSRGNHYYYGMDVWGRGTTVTVSS VL: DIQMTQSPSSVSASVGDRVTITCRASQGISSWLAWYQQKPGKAPKLLIYAASSLQSGVPSRFSGSGSGTDFTLTISSLQPEDFATYYCQQANNFPLTFGGGTKVEIK | binds | binds | – | –
Fab-RC, Fab fragment of the human monoclonal antibody IgG-RC (Fab, V domains shown) VH: QVQLVQSGAEMKKPGASVKVSCKASGYTFIGYHLHWVRQAPGQGLEWMGWINPNSGETNYAQKFQDWVTMTRDTSINTAYMELRLRSDDTAVYYCARGGMTMVRGVMMDWGQGTLVTVSS VL: DIQMTQSPSFLSASVGDRVTITCRASQGLDNFLAWYQQKPGKAPKLLIYAASTLQRGVPSRFGGSGSGTEFTLTISSLQPEDFATYYCQQLNSYSLTFGPGTKVEIK | – | – | binds | binds
